In patent US20230077205A1 one finds log α (log Kp PLBL2 - log Kp Ab6) data, which are given here for 2 substances.

In assay [1] the target is Protein A, MabSelect Sure (protein A affinity resin ligand). Put plainly: resin slurry partitioning on MabSelect Sure protein A resin; reference Ab6; Strip: 100 mM acetic acid.
Assay [2] shares this target. Description: resin slurry partitioning on MabSelect Sure protein A resin; reference Ab6; High salt wash: 10 mM NaPhosphate, pH 6.5, 0.5M NaCl.
Assay [3] has the same target. Put plainly: resin slurry partitioning on MabSelect Sure protein A resin; reference Ab6; Equil/wash: 10 mM NaPhosphate, pH 6.5.
Assay [4] has the same target. Description: resin slurry partitioning on MabSelect Sure protein A resin; reference Ab6; Elute: 20 mM NaAcetate, pH 3.5.

As for PLBL2 (enzyme), the log α (log Kp PLBL2 - log Kp Ab6) was 0 in assay [1], -2 in assay [2] and -2 in assay [3].

For the substance PLBL2, the log α (log Kp PLBL2 - log Kp Ab6) in assay [4] is -0.3.
